For 1 molecule, 微量中和-ELISA (MDCK细胞, 100TCID50 病毒) IC50, 450nm (OD) and Kd results are on record in patent CN111320686A.

In experiment [1] the target is H7N9病毒 A/Anhui/1/2013 的血凝素HA (on live virus) (H7N9 influenza virus A/Anhui/1/2013). The experiment is described as follows: cell-based or functional assay.
For experiment [2], the target named is H7N9病毒的HA蛋白(购自ACROBiosystems) (H7N9 influenza virus).
Experiment [3] shares this target. The source holds these as a separate data set.

“And” between values parts separate entries of the source, which are not always exact repeats. Equal entries are not always repeated.

Usually Kd stands for a measure of binding affinity in units of concentration.

B1: 抗H7N9全人源单克隆抗体2G3 (antibody, V domains shown)
VH: QVQLVESGAEVKKPGASVKVSCKASGYIFTSYEINWVRQATGQGLEWMGWMNPESGETGFAQKFQGRVTMTRNTSITTAYMELSSLTSEDTAVYYCATGNAECSGGSCYNWFEPWGQGTLVTVSS
VL: SSELTQDPAVSVALGQTVRITCQGDKLKSYYASWYQQKPGQAPVLVIYGRNNRPSGIPDRFSGSSSGNTASLTITGAQAEDEADYYCNSKETSGYHLVFGGGTKLTVLV
In experiment [1], B1 displayed a 微量中和-ELISA (MDCK细胞, 100TCID50 病毒) IC50 of 0.0711 µg/mL. In addition, the 450nm (OD) in experiment [2] is 1.6 OD 450nm and 2 OD 450nm and 1.78 OD 450nm. The same molecule displayed a Kd in experiment [3] of 2.3 nM.
